Laboratory results: patent US20200165343A1 (Dana-Farber, published 2020)

Legend:
[1] = molecular target: MICA extracellular domain (α1-α3 domains), allele not stated (human) (UniProt Q29983); assay: fluorescence ELISA (DELFIA): immobilized MICA extracellular domain, antibody titrated, biotinylated anti-mouse IgG + Europium-streptavidin
[2] = molecular target: T1, MICA extracellular domain (α1-α3 domains), allele not stated (human, UniProt Q29983 24-307); assay: as above
T1 construct: extracellular domain; also called MICA α1-α3 domains; full-length extracellular domain
T1 sequence (looked up): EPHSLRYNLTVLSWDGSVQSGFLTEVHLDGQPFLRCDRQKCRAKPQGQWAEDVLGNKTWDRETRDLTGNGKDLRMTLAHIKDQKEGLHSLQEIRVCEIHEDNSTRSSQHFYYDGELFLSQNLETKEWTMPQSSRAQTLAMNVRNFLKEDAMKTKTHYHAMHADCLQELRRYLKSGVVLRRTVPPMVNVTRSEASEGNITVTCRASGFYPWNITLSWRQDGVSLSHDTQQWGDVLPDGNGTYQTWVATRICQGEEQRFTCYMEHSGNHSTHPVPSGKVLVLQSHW

mAb 6D4 (anti-MICA/B antibody, clone 6D4, Biolegend; specific for the MICA α1-α2 domains)
EC50 [1]: 1 µg/mL

B1: mAb 7C6 (parental murine IgG2b monoclonal antibody specific for the MICA/B α3 domain) (antibody, V domains shown)
VH: QIQLVQSGPELKKPGETVKVSCKASGYMFTNYAMNWVKQAPEKGLKWMGWINTHTGDPTYADDFKGRIAFSLETSASTAYLQINNLKNEDTATYFCVRTYGNYAMDYWGQGTSVTVSS
VL: DIQMTQTTSSLSASLGDRVTISCSASQDISNYLNWYQQKPDGTVKLLIYDTSILHLGVPSRFSGSGSGTDYSLTISNLEPEDIATYYCQQYSKFPRTFGGGTTLEIK
notes: Mouse hybridoma antibody; also called 7C6 mAb; 7C6-mIgG2b
EC50 [2]: 1 µg/mL
